The text below walks through data of patent publication US20210253698A1 (AFFIMED, published 2021).

Test [1] addresses human CD16A (FcγRIIIA) on primary human NK cells (human) (UniProt P08637). Description: flow cytometry on primary human NK cells, 37 C, buffer. In general terms: In flow cytometry, cells or beads pass a laser one at a time.
The target in test [2] is Human CD16A-158V ECD-monomeric Fc fusion antigen (human) (UniProt P08637). Description: ELISA, CD16 antigen coated at 0.5 µg/mL (10 nM), without competition. (ELISA stands for enzyme-linked immunosorbent assay.)
Sequence of Human CD16A-158V ECD-monomeric Fc fusion antigen (human) (P08637 17-208 F176V): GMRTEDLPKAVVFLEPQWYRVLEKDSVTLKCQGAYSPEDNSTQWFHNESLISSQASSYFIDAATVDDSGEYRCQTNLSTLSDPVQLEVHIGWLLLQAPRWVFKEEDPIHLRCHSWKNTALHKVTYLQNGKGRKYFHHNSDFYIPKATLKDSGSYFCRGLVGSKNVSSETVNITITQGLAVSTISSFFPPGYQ
Test [3] shares this target. Description: ELISA, CD16 antigen coated at 0.5 µg/mL (10 nM), competitor 8-10 nM 3G8 IgG.
Test [4] concerns the target human CD16A (FcγRIIIA) on primary human NK cells (human) (UniProt P08637). Description: flow cytometry on primary human NK cells, 37 C, with 10 mg/mL polyclonal human IgG.
Test [5] deals with Cynomolgus CD16A ECD-monomeric Fc fusion antigen (cynomolgus) (UniProt Q8SPW2). Briefly: ELISA, antigen coated at 1.5 µg/mL (32 nM), scFv titrated.
Sequence of Cynomolgus CD16A ECD-monomeric Fc fusion antigen (cynomolgus) (Q8SPW2 17-208): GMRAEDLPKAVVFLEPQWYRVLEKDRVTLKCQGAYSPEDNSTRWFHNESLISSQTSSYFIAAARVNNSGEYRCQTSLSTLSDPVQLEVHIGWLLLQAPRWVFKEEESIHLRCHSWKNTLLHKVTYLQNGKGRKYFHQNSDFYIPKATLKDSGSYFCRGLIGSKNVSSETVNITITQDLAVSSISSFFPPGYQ
The target in test [6] is Human CD16A-158F ECD-monomeric Fc fusion antigen (human) (UniProt P08637). The test is described as above.
Sequence of Human CD16A-158F ECD-monomeric Fc fusion antigen (human) (P08637 17-208): as the sequence (P08637 17-208 F176V) above, with V160F counted along it
Test [7] concerns the target Human CD16A-158V ECD-monomeric Fc fusion antigen (human) (UniProt P08637). The description is as above.
Test [8] has the same target. Description: SPR (Biacore T200), receptor-mono-Fc captured, 1:1 model.
The target in test [9] is human CD16A-158V and cynomolgus CD16 (value not tied to one of the two). Description: SPR, 50 nM analyte, receptor captured, 3 h dissociation. (In SPR one partner is held on a chip, and binding of the other changes the refractive index at the surface.)
In test [10] the target is T1, B-cell maturation antigen (BCMA) (human, UniProt Q02223 1-54, limits assumed).
T1 construct: also called CD269; TNFRSF17
T1 sequence (looked up): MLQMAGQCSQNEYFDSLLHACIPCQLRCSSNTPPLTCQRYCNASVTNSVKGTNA
Description: flow cytometry on Raji cells (low BCMA), APC-A histogram, % of Max.

Test [11] has as its target human CD16A (SEQ ID NO:48) (human, UniProt P08637 17-208). Briefly: SPR (Biacore T200), purified scFv, monovalent binding affinity; human CD16A.
The target in test [12] is cynomolgus CD16A (SEQ ID NO:49) (cynomolgus, UniProt Q8SPW2 17-208). Description: SPR (Biacore T200), purified scFv, monovalent binding affinity; cynomolgus CD16A.
Sequence of cynomolgus CD16A (SEQ ID NO:49) (Q8SPW2 17-208 limits assumed): as the sequence (Q8SPW2 17-208) above
Test [13] concerns the target T2, Human CD16A-158F ECD-monomeric Fc fusion antigen (human, UniProt P08637 17-208, biotinylated in SPR).
T2 construct: extracellular domain; not shown: monomeric Fc (Ying et al. 2012) fusion partner, Avi tag in SPR
Description: SPR (Biacore T200), receptor-mono-Fc captured, 1:1 model. Here is the method: IgGs and scFvs were prepared in HBS-P+buffer at indicated concentration series and are injected to reference surfaces (Fc 1, Fc 3) and receptor captured surface (Fc 2, Fc 4) at a flow rate of 40 μL/min (association time 180 s, dissociation time 300 s). […] Data were referenced by subtraction of signals from reference surfaces (Fc 2-1, Fc 4-3) and zero concentration (buffer control) signals. Kinetic evaluation was performed by fitting data to a 1:1 binding model (Rmax and RI locally fitted) using Biacore T200 Evaluation Software (v3.1). […] Referenced curves were normalized to each curves maximum and overlaid. For investigation of receptor retention via qualitative dissociation phase comparison of monovalent and bivalent CD16A-binding antibodies or ligands, biotinylated mono-Fc(silent)-Avi-tagged receptors were prepared in HBS-P+and captured (human CD16A-158V approx. 160RU, cynomolgus CD16 approx. 320 RU) in flow cells Fc 2 and […].

Test [14] addresses T3, Human CD16A-158V ECD-monomeric Fc fusion antigen (human, UniProt P08637 17-208).
T3 construct: extracellular domain; also called CD16A-158V ECD-Fc fusion antigen; biotinylated mono-Fc(silent)-Avi-tagged receptor; not shown: monomeric Fc (Ying et al. 2012) fusion partner, Avi tag in SPR
Briefly: SPR multi-cycle kinetics (Biacore T200), 4-fold dilution series over captured human CD16A-158V. Here is the method: IgGs and scFvs were prepared in HBS-P+buffer at indicated concentration series and are injected to reference surfaces (Fc 1, Fc 3) and receptor captured surface (Fc 2, Fc 4) at a flow rate of 40 μL/min (association time 180 s, dissociation time 300 s). […] Data were referenced by subtraction of signals from reference surfaces (Fc 2-1, Fc 4-3) and zero concentration (buffer control) signals. Kinetic evaluation was performed by fitting data to a 1:1 binding model (Rmax and RI locally fitted) using Biacore T200 Evaluation Software (v3.1).

Test [15] concerns the target T4, human CD16A (FcγRIIIA) on primary human NK cells (human, UniProt P08637 17-254).
T4 construct: whole, on cells
Description: flow cytometry on freshly prepared human NK cells, DyLight650-labelled antibody, in the presence of 10 mg/mL SCIG (Hizentra), delta gMFI.
Description: Fresh prepared human NK cells were pre-incubated for 1-hours at 37 C with and without 10 mg/mL of SCIG (Hizentra), then stained with DyLight650 labeled anti-AFM26/CD16a at indicted concentrations. […] In FIGS. 40C and 40D, human NK cells were isolated from a healthy human blood donor. NK (FIG. 40D) and MM.1S cells (FIG. 40C) were preincubated separately in 50% human autologous serum for 2 hours prior to assay setup. NK cells were co-cultured with MM.15 tumor cell line at an approximate E:T ration of 5, and exposed to 10-fold serial diluted test articles from 0.1-100nM for approximately 20 hours at 37 C with 5% CO₂. Antibody staining with CD138 and CD56 followed by FACS were used to monitor cytotoxicity of MM.15 target cells and NK survival. Data were analyzed with the software programs FlowJo and GraphPad Prism 6.

Test [16] addresses T1, B-cell maturation antigen (BCMA). Description: not stated; binding to BCMA.
The target of test [17] is T5, CD16A (human, UniProt P08637 17-208).
T5 construct: also called CD16A antigen; FcγRIIIA
T5 sequence (P08637 17-208 limits assumed): as the sequence (P08637 17-208 F176V) above, with V160F counted along it
Description: not stated; binding to CD16A.

T2 sequence (P08637 17-208): as the sequence (P08637 17-208 F176V) above, with V160F counted along it
Sequence of human CD16A (FcγRIIIA) on primary human NK cells (human) (P08637 17-254): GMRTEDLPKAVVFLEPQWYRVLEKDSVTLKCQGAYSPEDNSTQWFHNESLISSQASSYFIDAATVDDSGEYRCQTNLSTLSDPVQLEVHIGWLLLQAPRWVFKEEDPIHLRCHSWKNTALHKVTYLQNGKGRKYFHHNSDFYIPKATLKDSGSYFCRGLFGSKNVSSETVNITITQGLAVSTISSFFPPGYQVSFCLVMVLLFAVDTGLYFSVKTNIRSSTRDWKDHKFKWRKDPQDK
T4 sequence (P08637 17-254): as above
T3 sequence (P08637 17-208 F176V): as the sequence (P08637 17-208 F176V) above
Sequence of human CD16A (SEQ ID NO:48) (P08637 17-208 limits assumed): as the sequence (P08637 17-208 F176V) above, with V160F counted along it

As to scFv 3G8, the Kd (in general, the free concentration of one partner at which half of the binding sites on the other are occupied at equilibrium, for simple one-to-one binding) in [1] is 3.8 nM; in [4], 64.6 nM; in test [8] it was 8.6 nM. In addition, the EC50 – broadly, the concentration needed to bring the measured effect to its halfway point – was found to be 0.9 nM in [2]; 19.7 nM in [3]; 0.87 nM in [5]; 0.58 nM in test [6]; 0.33 nM in test [7].

“IgG1 Fc (enhanced, S239D/I332E) (from UniProt P01857 1-330) (antibody)” showed a percent remaining on the receptor after 3 h of dissociation in [9] of 10%.

B1: CD16A/BCMA antibody III (bispecific antibody)
chain 1: DKTHTCPPCPAPEFEGGPSVFLFPPKPKDTLMISRTPEVTCVVVAVSHEDPEVKFNWYVDGVEVHNAKTKPREEQYNSTYRVVSVLTVLHQDWLNGKEYKCKVSNKALPAPIEKTISKAKGQPREPQVYTLPPSREEMTKNQVSLTCLVKGFYPSDIAVEWESNGQPENNYKTTPPVLDSDGSFFLTSKLTVDKSRWQQGNVFSCSVMHEALHNHYTQKSLSLSPGGGGGSGGGGSSYVLTQPSSVSVAPGQTATISCGGHNIGSKNVHWYQQRPGQSPVLVIYQDNKRPSGIPERFSGSNSGNTATLTISGTQAMDEADYYCQVWDNYSVLFGGGTKLTVLGGSGGSQVQLVQSGAEVKKPGESLKVSCKASGYTFTSYYMHWVRQAPGQGLEWMGAIEPMYGSTSYAQKFQGRVTMTRDTSTSTVYMELSSLRSEDTAVYYCARGSAYYYDFADYWGQGTLVTVSSGGSGGSGGSGGSGGSGGSSYVLTQPSSVSVAPGQTATISCGGHNIGSKNVHWYQQRPGQSPVLVIYQDNKRPSGIPERFSGSNSGNTATLTISGTQAMDEADYYCQVWDNYSVLFGGGTKLTVLGGSGGSQVQLVQSGAEVKKPGESLKVSCKASGYTFTSYYMHWVRQAPGQGLEWMGAIEPMYGSTSYAQKFQGRVTMTRDTSTSTVYMELSSLRSEDTAVYYCARGSAYYYDFADYWGQGTLVTVSSAAAGSHHHHHH
chain 2: EVQLLESGGGLVQPGGSLRLSCAASGFTFSNYDMAWVRQAPGKGLEWVSSISTRGDITSYRDSVKGRFTISRDNSKNTLYLQMNSLRAEDTAVYYCARQDYYTDYMGFAYWGQGTLVTVSSGGGGSGGGGSGGGGSAIQMTQSPSSLSASVGDRVTITCRASEDIYNGLAWYQQKPGKAPKLLIYGASSLQDGVPSRFSGSGSGTEFTLTISSLQPEDEATYYCAGPHKYPLTFGGGTKVEIKDKTHTCPPCPAPEFEGGPSVFLFPPKPKDTLMISRTPEVTCVVVAVSHEDPEVKFNWYVDGVEVHNAKTKPREEQYNSTYRVVSVLTVLHQDWLNGKEYKCKVSNKALPAPIEKTISKAKGQPREPQVYTLPPSREEMTKNQVSLYCLVKGFYPSDIAVEWESNGQPENNYKTTPPVLDSDGSFFLYSKLTVDKSRWQQGNVFSCSVMHEALHNHYTQKSLSLSPG
notes: also called KiH-scDb-Fc BCMA/CD16a
Turning to B1, the binding result in test [10] is “binds”.

B2: anti-CD16A Fv of SEQ ID NOs:1 and 2 (scFv)
chain 1: QVQLVQSGAEVKKPGESLKVSCKASGYTFTSYYMHWVRQAPGQGLEWMGIINPSGGSTSYAQKFQGRVTMTRDTSTSTVYMELSSLRSEDTAVYYCARGSAYYYDFADYWGQGTLVTVSS
chain 2: SYVLTQPSSVSVAPGQTATISCGGHNIGSKNVHWYQQRPGQSPVLVIYQDNKRPSGIPERFSGSNSGNTATLTISGTQAMDEADYYCQVWDNYSVLFGGGTKLTVL
notes: Measured as purified scFv
On to B2, for which the Kd was 40.5 nM in test [11] and 132 nM in [12].

B3: IgG1 Fc (silenced, L234F/L235E/D265A) (antibody)
heavy: ASTKGPSVFPLAPSSKSTSGGTAALGCLVKDYFPEPVTVSWNSGALTSGVHTFPAVLQSSGLYSLSSVVTVPSSSLGTQTYICNVNHKPSNTKVDKKVEPKSCDKTHTCPPCPAPEFEGGPSVFLFPPKPKDTLMISRTPEVTCVVVAVSHEDPEVKFNWYVDGVEVHNAKTKPREEQYNSTYRVVSVLTVLHQDWLNGKEYKCKVSNKALPAPIEKTISKAKGQPREPQVYTLPPSRDELTKNQVSLTCLVKGFYPSDIAVEWESNGQPENNYKTTPPVLDSDGSFFLYSKLTVDKSRWQQGNVFSCSVMHEALHNHYTQKSLSLSPGK
notes: also called human IgG1 Fc-silenced
As for B3, in test [13], the Kd worked out at 34700 nM, the koff (usually the rate constant with which the complex falls apart) amounted to 0.71 s⁻¹ and the kon (commonly the second-order rate constant of association) is 20400 M⁻¹ s⁻¹. Further, the binding result in [14] is “no binding”.

B4: CD16A/BCMA antibody II (bispecific antibody)
TandAb polypeptide VH BCMA-VL CD16A-VH CD16A-VL BCMA: EVQLLESGGGLVQPGGSLRLSCAASGFTFSNYDMAWVRQAPGKGLEWVSSISTRGDITSYRDSVKGRFTISRDNSKNTLYLQMNSLRAEDTAVYYCARQDYYTDYMGFAYWGQGTLVTVSSGGSGGSGGSGGSSYVLTQPSSVSVAPGQTATISCGGHNIGSKNVHWYQQRPGQSPVLVIYQDNKRPSGIPERFSGSNSGNTATLTISGTQAMDEADYYCQVWDNYSVLFGGGTKLTVLGGSQVQLVQSGAEVKKPGESLKVSCKASGYTFTSYYMHWVRQAPGQGLEWMGAIEPMYGSTSYAQKFQGRVTMTRDTSTSTVYMELSSLRSEDTAVYYCARGSAYYYDFADYWGQGTLVTVSSGGSGGSGGSGGSAIQMTQSPSSLSASVGDRVTITCRASEDIYNGLAWYQQKPGKAPKLLIYGASSLQDGVPSRFSGSGSGTEFTLTISSLQPEDEATYYCAGPHKYPLTFGGGTKVEIK
notes: also called Fc-less TandAb BCMA/CD16A
For the molecule B4, the binding result in [10] is “binds”.

B5: CD16A/BCMA antibody I (bispecific antibody, human IgG1, kappa)
heavy: EVQLLESGGGLVQPGGSLRLSCAASGFTFSNYDMAWVRQAPGKGLEWVSSISTRGDITSYRDSVKGRFTISRDNSKNTLYLQMNSLRAEDTAVYYCARQDYYTDYMGFAYWGQGTLVTVSSASTKGPSVFPLAPSSKSTSGGTAALGCLVKDYFPEPVTVSWNSGALTSGVHTFPAVLQSSGLYSLSSVVTVPSSSLGTQTYICNVNHKPSNTKVDKKVEPKSCDKTHTCPPCPAPEFEGGPSVFLFPPKPKDTLMISRTPEVTCVVVAVSHEDPEVKFNWYVDGVEVHNAKTKPREEQYNSTYRVVSVLTVLHQDWLNGKEYKCKVSNKALPAPIEKTISKAKGQPREPQVYTLPPSREEMTKNQVSLTCLVKGFYPSDIAVEWESNGQPENNYKTTPPVLDSDGSFFLYSKLTVDKSRWQQGNVFSCSVMHEALHNHYTQKSLSLSPGGGGGSGGGGSGGGGSGGGGSGGGGSGGGGSSYVLTQPSSVSVAPGQTATISCGGHNIGSKNVHWYQQRPGQSPVLVIYQDNKRPSGIPERFSGSNSGNTATLTISGTQAMDEADYYCQVWDNYSVLFGGGTKLTVLGGSGGSGGSGGSGGSGGSGGSQVQLVQSGAEVKKPGESLKVSCKASGYTFTSYYMHWVRQAPGQGLEWMGAIEPMYGSTSYAQKFQGRVTMTRDTSTSTVYMELSSLRSEDTAVYYCARGSAYYYDFADYWGQGTLVTVSS
light: AIQMTQSPSSLSASVGDRVTITCRASEDIYNGLAWYQQKPGKAPKLLIYGASSLQDGVPSRFSGSGSGTEFTLTISSLQPEDEATYYCAGPHKYPLTFGGGTKVEIKRTVAAPSVFIFPPSDEQLKSGTASVVCLLNNFYPREAKVQWKVDNALQSGNSQESVTEQDSKDSTYSLSSTLTLSKADYEKHKVYACEVTHQGLSSPVTKSFNRGEC
notes: also called scFv-IgAb I BCMA/CD16a; BCMA/CD16A antibody I
As for B5, in [15], the EC50 (read off the curve) (as a rule, the concentration giving half of the maximal effect) is about 40 nM. Moreover, the Kd is about 2 nM in [16] and about 16 nM in test [17].
